Test results published in patent US9284543B2, “Neutral active soluble truncated PH20 polypeptides and uses thereof” (Halozyme, Inc., priority 2008, dated 2016).

Key:
[1] = Microtiter hyaluronidase activity assay with biotinylated-hyaluronic acid; format: biochemical; conditions: 72 hour post transfection supernatant
CHO-S cells = test: PI-PLC treatment of expressing cells, Western blot of media and cells; format: cell-based, Chinese Hamster; conditions: cells incubated with PI-PLC for 2 hours
Procedure: In this example, following transient expression, as described in Example 2 above, the media and cells were harvested separately and analyzed for PH20 expression and solublility by Western blot analysis. Solubility of the C-terminus truncation mutants was determined by examining whether the expressed protein was present in the growth media or in the cells. […] Cells expressing these mutants were treated with phosphoinositol-phospholipase C (PI-PLC), which cleaves the GPI-anchor allowing the release of soluble protein into the media, and the presence of PH20 in the resulting media and cells was determined by Western blot analysis.
Following expression of rHuPH20 in CHO—S cells for 72 hours, as described in Example 2A above, the media and cells were harvested separately. The cells were washed with serum-free media followed by the addition of 2 mL serum-free media per well. PI-PLC (0.5 units/well) was added to each well and the cells were incubated in the PI-PLC for 2 hours. The resultant media and cells were analyzed by Western blot analysis as described above.
Two plates each of rHuPH20 expressing CHO—S cells, one for treatment with PI-PLC and one without treatment with PI-PLC, were prepared for each C-terminus mutant as described in Example 2B above. Following expression for 48 hours, for cells untreated with PI-PLC, the media and cells were harvested separately. The harvested media was spun down, concentrated to a volume of 10 mL, and buffer exchanged into PBS using an Amicon 30 kD MWCO concentrator. The cells were rinsed with cold PBS and scraped and resuspended in 1.2 mL PBS with protease inhibitor Set III (Cat No. 539134, Calbiochem). The resuspended cells were briefly sonicated to prepare whole-cell extract. For PI-PLC treatment of cells, following expression for 48 hours, the untreated media was harvested, as described above. The cells were rinsed once with fresh CD DG44 medium with Glutamax-1, and the media was replaced with 12 mL fresh detergent free CD DG44 medium supplemented with Glutamax-1 with 3.0 units PI-PLC per dish, and the cells were incubated for 2 hours at 37° C. with 5% CO2. After 2 hours, the PI-PLC media and cells were harvested separately, as described above. The resultant untreated media and cells, and PI-PLC treated media and cells, were analyzed by Western blot analysis as described above.

| Molecule | pH 5.5 Activity ([1]; Table 6) | pH 7.4 Activity ([1]; Table 6) | pH 5.5 Activity ([1]; Table 6A) | pH 7.4 Activity ([1]; Table 6A) | Expressed in Media Following Addition of PI-PLC (CHO-S cells) |
| --- | --- | --- | --- | --- | --- |
| SPAM1-IISS: C-terminally truncated human PH20, precursor 505 aa (SEQ ID NO:4), mature 470 aa (SEQ ID NO:56) (protein, listed as Homo sapiens, HuPH20 precursor 1-505; mature HuPH20 36-505) chain 1: MGVLKFKHIFFRSFVKSSGVSQIVFTFLLIPCCLTLNFRAPPVIPNVPFLWAWNAPSEFCLGKFDEPLDMSLFSFIGSPRINATGQGVTIFYVDRLGYYPYIDSITGVTVNGGIPQKISLQDHLDKAKKDITFYMPVDNLGMAVIDWEEWRPTWARNWKPKDVYKNRSIELVQQQNVQLSLTEATEKAKQEFEKAGKDFLVETIKLGKLLRPNHLWGYYLFPDCYNHHYKKPGYNGSCFNVEIKRNDDLSWLWNESTALYPSIYLNTQQSPVAATLYVRNRVREAIRVSKIPDAKSPLPVFAYTRIVFTDQVLKFLSQDELVYTFGETVALGASGIVIWGTLSIMRSMKSCLLLDNYMETILNPYIINVTLAAKMCSQVLCQEQGVCIRKNWNSSDYLHLNPDNFAIQLEKGGKFTVRGKPTLEDLEQFSEKFYCSCYSTLSCKEKADVKDTDAVDVCIADGVCIDAFLKPPMETEEPQIFYNASPSTLSATMFIVSILFLIISS chain 2: LNFRAPPVIPNVPFLWAWNAPSEFCLGKFDEPLDMSLFSFIGSPRINATGQGVTIFYVDRLGYYPYIDSITGVTVNGGIPQKISLQDHLDKAKKDITFYMPVDNLGMAVIDWEEWRPTWARNWKPKDVYKNRSIELVQQQNVQLSLTEATEKAKQEFEKAGKDFLVETIKLGKLLRPNHLWGYYLFPDCYNHHYKKPGYNGSCFNVEIKRNDDLSWLWNESTALYPSIYLNTQQSPVAATLYVRNRVREAIRVSKIPDAKSPLPVFAYTRIVFTDQVLKFLSQDELVYTFGETVALGASGIVIWGTLSIMRSMKSCLLLDNYMETILNPYIINVTLAAKMCSQVLCQEQGVCIRKNWNSSDYLHLNPDNFAIQLEKGGKFTVRGKPTLEDLEQFSEKFYCSCYSTLSCKEKADVKDTDAVDVCIADGVCIDAFLKPPMETEEPQIFYNASPSTLSATMFIVSILFLIISS | 0.837 Units/ml | 1.458 Units/ml | 0.932 Units/ml | 1.863 Units/ml | YES |
| SPAM1-FLII: C-terminally truncated human PH20, precursor 503 aa (SEQ ID NO:5), mature 468 aa (SEQ ID NO:57) (protein, listed as Homo sapiens, HuPH20 precursor 1-503; mature HuPH20 36-503) chain 1: MGVLKFKHIFFRSFVKSSGVSQIVFTFLLIPCCLTLNFRAPPVIPNVPFLWAWNAPSEFCLGKFDEPLDMSLFSFIGSPRINATGQGVTIFYVDRLGYYPYIDSITGVTVNGGIPQKISLQDHLDKAKKDITFYMPVDNLGMAVIDWEEWRPTWARNWKPKDVYKNRSIELVQQQNVQLSLTEATEKAKQEFEKAGKDFLVETIKLGKLLRPNHLWGYYLFPDCYNHHYKKPGYNGSCFNVEIKRNDDLSWLWNESTALYPSIYLNTQQSPVAATLYVRNRVREAIRVSKIPDAKSPLPVFAYTRIVFTDQVLKFLSQDELVYTFGETVALGASGIVIWGTLSIMRSMKSCLLLDNYMETILNPYIINVTLAAKMCSQVLCQEQGVCIRKNWNSSDYLHLNPDNFAIQLEKGGKFTVRGKPTLEDLEQFSEKFYCSCYSTLSCKEKADVKDTDAVDVCIADGVCIDAFLKPPMETEEPQIFYNASPSTLSATMFIVSILFLII chain 2: LNFRAPPVIPNVPFLWAWNAPSEFCLGKFDEPLDMSLFSFIGSPRINATGQGVTIFYVDRLGYYPYIDSITGVTVNGGIPQKISLQDHLDKAKKDITFYMPVDNLGMAVIDWEEWRPTWARNWKPKDVYKNRSIELVQQQNVQLSLTEATEKAKQEFEKAGKDFLVETIKLGKLLRPNHLWGYYLFPDCYNHHYKKPGYNGSCFNVEIKRNDDLSWLWNESTALYPSIYLNTQQSPVAATLYVRNRVREAIRVSKIPDAKSPLPVFAYTRIVFTDQVLKFLSQDELVYTFGETVALGASGIVIWGTLSIMRSMKSCLLLDNYMETILNPYIINVTLAAKMCSQVLCQEQGVCIRKNWNSSDYLHLNPDNFAIQLEKGGKFTVRGKPTLEDLEQFSEKFYCSCYSTLSCKEKADVKDTDAVDVCIADGVCIDAFLKPPMETEEPQIFYNASPSTLSATMFIVSILFLII | 0.6345 Units/ml | 0.9405 Units/ml | 0.648 Units/ml | 1.094 Units/ml | YES |
| SPAM1-SSVA: C-terminally truncated human PH20, precursor 507 aa (SEQ ID NO:3), mature 472 aa (SEQ ID NO:55) (protein, listed as Homo sapiens, HuPH20 precursor 1-507; mature HuPH20 36-507) chain 1: MGVLKFKHIFFRSFVKSSGVSQIVFTFLLIPCCLTLNFRAPPVIPNVPFLWAWNAPSEFCLGKFDEPLDMSLFSFIGSPRINATGQGVTIFYVDRLGYYPYIDSITGVTVNGGIPQKISLQDHLDKAKKDITFYMPVDNLGMAVIDWEEWRPTWARNWKPKDVYKNRSIELVQQQNVQLSLTEATEKAKQEFEKAGKDFLVETIKLGKLLRPNHLWGYYLFPDCYNHHYKKPGYNGSCFNVEIKRNDDLSWLWNESTALYPSIYLNTQQSPVAATLYVRNRVREAIRVSKIPDAKSPLPVFAYTRIVFTDQVLKFLSQDELVYTFGETVALGASGIVIWGTLSIMRSMKSCLLLDNYMETILNPYIINVTLAAKMCSQVLCQEQGVCIRKNWNSSDYLHLNPDNFAIQLEKGGKFTVRGKPTLEDLEQFSEKFYCSCYSTLSCKEKADVKDTDAVDVCIADGVCIDAFLKPPMETEEPQIFYNASPSTLSATMFIVSILFLIISSVA chain 2: LNFRAPPVIPNVPFLWAWNAPSEFCLGKFDEPLDMSLFSFIGSPRINATGQGVTIFYVDRLGYYPYIDSITGVTVNGGIPQKISLQDHLDKAKKDITFYMPVDNLGMAVIDWEEWRPTWARNWKPKDVYKNRSIELVQQQNVQLSLTEATEKAKQEFEKAGKDFLVETIKLGKLLRPNHLWGYYLFPDCYNHHYKKPGYNGSCFNVEIKRNDDLSWLWNESTALYPSIYLNTQQSPVAATLYVRNRVREAIRVSKIPDAKSPLPVFAYTRIVFTDQVLKFLSQDELVYTFGETVALGASGIVIWGTLSIMRSMKSCLLLDNYMETILNPYIINVTLAAKMCSQVLCQEQGVCIRKNWNSSDYLHLNPDNFAIQLEKGGKFTVRGKPTLEDLEQFSEKFYCSCYSTLSCKEKADVKDTDAVDVCIADGVCIDAFLKPPMETEEPQIFYNASPSTLSATMFIVSILFLIISSVA | 1.125 Units/ml | 1.4715 Units/ml | 1.256 Units/ml | 1.782 Units/ml | YES |
